Measured values as given in patent US7556938B1, “Nucleic acids encoding potassium channel interactors” (Millennium Pharmaceuticals, Inc., priority 1998, dated 2009).

What was measured:
rKv4.3 = assay: Two-electrode voltage clamp of Kv4.3 currents in Xenopus oocytes co-injected with KChIP cRNA; assay type: cell-based, rat
Procedure: (§1) Frogs underwent no more than two surgeries and surgeries were performed by well established techniques. Frogs were anesthetized with ice. Total cRNA (1-10 ng) was injected into stage IV Xenopus oocytes that were harvested the previous day. The Xenopus oocytes were incubated in ND96 containing (in mM) 96 NaCl, 2 KCl, 1.8 CaCl2, 1 MgCl2, 5 HEPES, pH 7.6, plus (Gentamycin 50 μg/ml) at 18° C. Xenopus oocytes were studied 3-7 days after injection. The two-electrode voltage-clamp recordings were performed in ND96 solution using a TURBO TEC 03 Clamp Amplifier (ALA Scientific Instruments, Westbury, N.Y.). Both electrodes were filled with 3 M KCl and had electrode resistances ranging from 0.2-1 MOhm. The current signals were filtered at 1000 Hz before transferred on a PC (Gateway, Calif.) using the PULSE software (HEKA, Germany).
(§2) To investigate whether the modulatory effects of these KChIPs are specific for Kv4 channels, KChIP1 was coexpressed with Kv1.4 and Kv2.1 in Xenopus oocytes. Xenopus oocytes were injected with 1-3 ng/oocyte of cRNA which was prepared using standard in vitro transcription techniques (Sambrook et al. 1989. Molecular Cloning: a laboratory manual, Cold Spring Harbor Press). Currents in Xenopus oocytes were measured with a two-electrode voltage clamp. […] As a final control for the KChIP effects and to verify that the KChIPs' effects on Kv4 currents are independent of expression system, the above kinetic analyses were repeated after expressing Kv4.3 and KChIP mRNAs in Xenopus oocytes. The effects KChIP1 on for Kv4.3 in the Xenopus oocyte system were strikingly similar to those on Kv4.2 in CHO cells (Table 1).

HKv2.1 = biological target: T1, HKv2.1 (Homo sapiens, UniProt Q14721); assay: Two-electrode voltage clamp of Kv2.1 currents in Xenopus oocytes coexpressing 1v; assay type: cell-based
T1 sequence (Q14721 1-858): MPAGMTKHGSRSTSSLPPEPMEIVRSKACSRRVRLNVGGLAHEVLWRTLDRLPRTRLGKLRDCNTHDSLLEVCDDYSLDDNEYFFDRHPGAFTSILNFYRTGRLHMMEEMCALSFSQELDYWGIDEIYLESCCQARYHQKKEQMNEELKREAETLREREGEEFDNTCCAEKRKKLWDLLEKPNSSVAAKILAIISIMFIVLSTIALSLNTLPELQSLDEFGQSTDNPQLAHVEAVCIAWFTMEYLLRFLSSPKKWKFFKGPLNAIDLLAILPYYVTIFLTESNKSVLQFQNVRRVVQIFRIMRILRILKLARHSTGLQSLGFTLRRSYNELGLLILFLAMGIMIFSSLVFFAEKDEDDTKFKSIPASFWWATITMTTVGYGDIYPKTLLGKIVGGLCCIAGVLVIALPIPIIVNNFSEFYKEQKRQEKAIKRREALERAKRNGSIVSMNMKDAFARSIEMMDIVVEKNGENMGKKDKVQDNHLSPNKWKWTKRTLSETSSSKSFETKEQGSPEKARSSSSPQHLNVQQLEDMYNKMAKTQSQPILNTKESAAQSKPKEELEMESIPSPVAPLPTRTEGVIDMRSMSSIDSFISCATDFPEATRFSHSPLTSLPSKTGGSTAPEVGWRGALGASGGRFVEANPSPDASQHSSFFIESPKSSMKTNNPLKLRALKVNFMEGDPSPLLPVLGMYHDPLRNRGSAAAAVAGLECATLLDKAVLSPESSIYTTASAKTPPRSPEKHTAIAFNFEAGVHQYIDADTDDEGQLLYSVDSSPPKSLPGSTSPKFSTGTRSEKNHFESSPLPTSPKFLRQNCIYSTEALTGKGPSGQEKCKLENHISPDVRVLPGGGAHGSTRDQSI
Procedure: as §1, §2

rKv4.3N = biological target: T2, rKv4.3N (Rattus norvegicus, UniProt Q62897); assay: Yeast two-hybrid binding and specificity test, Kv4.3 N-terminal bait
T2 construct: expressed in transfected cells; host or cells: yeast HF7c (bait), mated with Y187 (fish)
T2 sequence (Q62897 1-180): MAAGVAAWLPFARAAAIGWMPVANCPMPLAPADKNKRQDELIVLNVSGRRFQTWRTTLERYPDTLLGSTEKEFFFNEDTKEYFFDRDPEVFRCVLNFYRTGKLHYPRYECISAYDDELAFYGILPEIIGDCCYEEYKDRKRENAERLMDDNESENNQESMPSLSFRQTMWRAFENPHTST
Procedure: The first 180 amino acids of rKv4.3 (described in Serdio P. et al. (1996) J. Neurophys 75:2174-2179) were amplified by PCR and cloned in frame into pGBT9 resulting in plasmid pFWA2, (hereinafter “bait”). This bait was transformed into the two-hybrid screening strain HF7c and tested for expression and self-activation. The bait was validated for expression by Western blotting.
Two-hybrid screens were carried out essentially as described in Bartel, P. et al. (1993) “Using the Two-Hybrid System to Detect Polypeptide-Polypeptide Interactions” in Cellular Interactions in Development: A Practical Approach, Hartley, D. A. ed. Oxford University Press, Oxford, pp. 153-179, with a bait-library pair of rkv4.3 bait-rat mid brain library. A filter disk beta-galactosidase (beta-gal) assay was performed essentially as previously described (Brill et al. (1994) Mol. Biol. Cell. 5:297-312). Clones that were positive for both reporter gene activity (His and beta-galactosidase) were scored and fish, plasmids were isolated from yeast, transformed into E. coli strain KC8, DNA plasmids were purified and the resulting plasmids were sequenced by conventional methods (Sanger F. et al. (1977) PNAS, 74: 5463-67).
Positive interactor clones were subjected to a binding specificity test where they were exposed to a panel of related and unrelated baits by a mating scheme previously described (Finley R. L. Jr. et al. (1994) PNAS, 91(26):12980-12984). Briefly, positive fish plasmids were transformed into Y187 and the panel of baits were transformed into HF7c. Transformed fish and bait cells were streaked out as stripes on selective medium plates, mated on YPAD plates, and tested for reporter gene activity.

[1] = Kv4.3 co-expressed with the KChIP

rKv4.3, sequence (Q62897 1-487 limits assumed): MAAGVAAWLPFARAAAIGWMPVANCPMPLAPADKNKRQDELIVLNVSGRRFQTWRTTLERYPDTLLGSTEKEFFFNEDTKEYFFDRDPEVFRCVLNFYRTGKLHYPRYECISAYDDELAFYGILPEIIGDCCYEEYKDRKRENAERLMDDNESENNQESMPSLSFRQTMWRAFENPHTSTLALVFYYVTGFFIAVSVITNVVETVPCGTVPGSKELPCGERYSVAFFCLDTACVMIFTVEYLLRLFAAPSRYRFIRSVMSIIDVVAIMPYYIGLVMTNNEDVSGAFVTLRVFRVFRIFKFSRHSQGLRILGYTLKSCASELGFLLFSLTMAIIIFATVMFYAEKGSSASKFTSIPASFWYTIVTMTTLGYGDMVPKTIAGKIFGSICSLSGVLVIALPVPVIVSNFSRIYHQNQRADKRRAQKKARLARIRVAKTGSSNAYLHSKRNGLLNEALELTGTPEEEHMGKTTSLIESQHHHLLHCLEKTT

effect on Kv2.1 currents (HKv2.1): did not appear to have any effect | Activation V1/2 (mV) (HKv2.1; HKv2.1 + 1v): 12.4 mV | Steady-state Inactivation V1/2 (mV) (HKv2.1; HKv2.1 + 1v): −23.9 mV | Peak Current (μA/cell at 50 MV) (HKv2.1; HKv2.1 + 1v, at 50 mV): 2.9 ± 0.37 μA/cell | Inactivation time constant (at 50 mV) (HKv2.1; HKv2.1 + 1v, at 50 mV, listed as head says ms, cell prints s): 1.7 s 0.078 | binding to rKv4.3N in yeast two-hybrid assay (rKv4.3N): able to bind to the Kv4.3 polypeptide
B1: KChIP1: Potassium channel interacting protein 1v, a Ca2+-binding protein that binds and modulates Kv4 channels (protein)
chain: MPARVLLAYPGTEMLTQGESEGLQTLGIVVVLCSSLKLLHYLGLIDLSDDKIEDDLEMTMVCHRPEGLEQLEAQTNFTKRELQVLYRGFKNECPSGVVNEETFKQIYAQFFPHGDASTYAHYLFNAFDTTQTGSVKFEDFVTALSILLRGTVHEKLRWTFNLYDINKDGYINKEEMMDIVKAIYDMMGKYTYPVLKEDTPRQHVDVFFQKMDKNKDGIVTLDEFLESCQEDDNIMRSLQLFQNVM
Inactivation time constant (ms ± SEM) (rKv4.3; [1]): 112 ± 3 ms | Peak amplitude (μA ± SEM) (rKv4.3; [1]): 59 ± 5 μA | Inactivation time constant (ms, at 50 mV) (rKv4.3; rKv4.3 + KChIP1, at 50 mV): 135.0 ± 15.1 ms | Peak Current (rKv4.3; rKv4.3 + KChIP1, at 50 mV, unit μA printed in cell): 18.1 μA* ± 3.8 | fold increase of inactivation time constant of Kv4.3 (rKv4.3; versus Kv4.3 alone): ~2 fold
